Measured values as given in patent US9587033.

Experiments:
[1] = molecular target: Grb2 (UniProt P62993)
[2] = molecular target: Grb2, P62993
Sequence of Grb2, P62993 (P62993 whole entry, looked up): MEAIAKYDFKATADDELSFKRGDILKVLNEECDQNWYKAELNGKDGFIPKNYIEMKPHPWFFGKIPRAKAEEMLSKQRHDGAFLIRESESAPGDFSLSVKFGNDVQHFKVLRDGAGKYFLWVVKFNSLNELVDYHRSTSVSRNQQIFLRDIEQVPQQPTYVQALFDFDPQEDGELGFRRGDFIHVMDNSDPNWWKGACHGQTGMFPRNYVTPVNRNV

Row | Molecule | in vitro PTK activity assay (Y-phosphorylation of Grb2) [1] | in vitro PTK activity assay (Y-phosphorylation of Grb2) [2]
1 | 60 kDa truncated Tnk1-C17ORF61 fusion protein (tTnk1) | The t-Tnk1 showed none or weak Y-phosphorylation of Grb2 | 
2 | full length Tnk1 (72 kDa) (protein) MLPEAGSLWLLKLLRDIQLAQFYWPILEELNVTRPEHFDFVKPEDLDGIGMGRPAQRRLSEALKRLRSGPKSKNWVYKILGGFAPEHKEPTLPSDSPRHLPEPEGGLKCLIPEGAVCRGELLGSGCFGVVHRGLWTLPSGKSVPVAVKSLRVGPEGPMGTELGDFLREVSVMMNLEHPHVLRLHGLVLGQPLQMVMELAPLGSLHARLTAPAPTPPLLVALLCLFLRQLAGAMAYLGARGLVHRDLATRNLLLASPRTIKVADFGLVRPLGGARGRYVMGGPRPIPYAWCAPESLRHGAFSSASDVWMFGVTLWEMFSGGEEPWAGVPPYLILQRLEDRARLPRPPLCSRALYSLALRCWAPHPADRPSFSHLEGLLQEAGPSEACCVRDVTEPGALRMETGDPITVIEGSSSFHSPDSTIWKGQNGRTFKVGSFPASAVTLADAGGLPATRPVHRGTPARGDQHPGSIDGDRKKANLWDAPPARGQRRNMPLERMKGISRSLESVLSLGPRPTGGGSSPPEIRQARAVPQGPPGLPPRPPLSSSSPQPSQPSRERLPWPKRKPPHNHPMGMPGARKAAALSGGLLSDPELQRKIMEVELSVHGVTHQECQTALGATGGDVVSAIRNLKVDQLFHLSSRSRADCWRILEHYQWDLSAASRYVLARP |  | Tnk1 from T47D or K562 Y-phosphorylated Grb2
